{"source": "patent US20180057581A1", "about": "(MorphoSys, published 2018)", "binders": {"B1": {"name": "Camille (format not stated) (antibody, V domains shown)", "VH": "QVQLQQSGPGLVKPSQTLSLTCAISGESVSTSSAAWNWIRQSPSRGLEWLGRTYYRSKWKHEYAVSVKSRITINPDTSKNQFSLQLNSVTPEDTAVYYCARDRYYYSAFDYWGQGTLVTVSS", "VL": "QSALTQPASVSGSPGQSITISCTGTSSDVGGYNSVSWYQQHPGKAPKLLIYAVSNRPSGVSNRFSGSKSGNTASLTISGLQAEDEADYYCASYDERFTRVFGGGTKLTVLG", "notes": "also called Antibody Camille"}}, "key": {"[1]": {"biological_target": "T1, Recombinant cynomolgus monkey sgM-CSF (cynomolgus (Macaca fascicularis), UniProt P09603 33-255 (human entry), limits assumed)", "T1 construct": "used also where only 'cynomolgus M-CSF' is printed (ELISA result, SET); also called cynomolgus sgM-CSF; cyno sgM-CSF", "T1 chain": "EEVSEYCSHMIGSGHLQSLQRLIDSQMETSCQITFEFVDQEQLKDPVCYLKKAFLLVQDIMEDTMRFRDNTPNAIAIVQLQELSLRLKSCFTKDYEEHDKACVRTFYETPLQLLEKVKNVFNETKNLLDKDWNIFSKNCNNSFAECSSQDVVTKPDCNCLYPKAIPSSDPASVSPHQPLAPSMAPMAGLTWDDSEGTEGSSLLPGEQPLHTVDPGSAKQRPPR", "test": "Table 12 summary, criterion Binding, Cynomolgus M-CSF; assay and antibody format not named there"}, "[2]": {"biological_target": "T2, Trypsinogen (cow) (cow, UniProt P00760 18-246)", "T2 sequence (looked up)": "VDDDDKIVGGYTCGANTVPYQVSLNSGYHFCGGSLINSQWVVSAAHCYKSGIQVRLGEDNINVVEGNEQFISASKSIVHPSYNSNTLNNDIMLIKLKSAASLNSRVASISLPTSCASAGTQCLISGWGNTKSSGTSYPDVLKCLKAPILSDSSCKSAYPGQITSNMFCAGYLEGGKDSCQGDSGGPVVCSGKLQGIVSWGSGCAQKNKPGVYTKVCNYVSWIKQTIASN", "test": "MSD specificity profiling, coated protein, Camille at 100 nM", "procedure": "(§1) For this specificity profiling test the different proteins and controls were coated on two 384-well MSD plates with a concentration of 1 μg/ml at 4° C. over night. Plates were blocked with BSA and washed three times with PBS with 0.05% (v/v) Tween 20. Antibody samples were diluted to 100 nM and 10 nM in assay buffer (PBS with 0.5% (w/v) BSA, 0.05% (v/v) Tween 20). […] Samples and controls were incubated for three hours at room temperature. The plates were washed three times and 30 μl detection antibody (ECL-labeled anti-human Fab) were added per well and incubated for 1 h. After washing, MSD Read Buffer T with surfactant was added and electrochemiluminescence signals were detected using a Sector Imager 6000 (Meso Scale Discovery, Gaithersburg, Md., USA)."}, "[3]": {"biological_target": "T3, RNase A (cow) (cow, UniProt P61823 27-150)", "T3 sequence (looked up)": "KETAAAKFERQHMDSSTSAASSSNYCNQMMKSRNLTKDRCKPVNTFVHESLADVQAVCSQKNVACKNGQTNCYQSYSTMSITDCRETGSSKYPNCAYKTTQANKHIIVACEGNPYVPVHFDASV", "test": "MSD specificity profiling, coated protein, Camille at 100 nM", "procedure": "as §1"}, "[4]": {"biological_target": "Anti-human Fc (Dianova, #109-005-098)", "test": "MSD specificity profiling, coated protein, Camille at 100 nM", "procedure": "as §1"}, "[5]": {"biological_target": "Serum albumin (human) (human, UniProt P02768 25-609)", "test": "MSD specificity profiling, coated protein, Camille at 100 nM", "procedure": "as §1"}, "[6]": {"biological_target": "T4, human M-CSF (human, UniProt P09603 33-255, limits assumed)", "T4 construct": "also called M-CSF (human); CSF-1", "T4 sequence": "T1 chain with M186V, D192E", "test": "MSD specificity profiling, coated protein, Camille at 100 nM", "procedure": "as §1"}, "[7]": {"biological_target": "Transferrin (bovine) (bovine, UniProt Q29443 20-704)", "sequence (Q29443 20-704 limits assumed)": "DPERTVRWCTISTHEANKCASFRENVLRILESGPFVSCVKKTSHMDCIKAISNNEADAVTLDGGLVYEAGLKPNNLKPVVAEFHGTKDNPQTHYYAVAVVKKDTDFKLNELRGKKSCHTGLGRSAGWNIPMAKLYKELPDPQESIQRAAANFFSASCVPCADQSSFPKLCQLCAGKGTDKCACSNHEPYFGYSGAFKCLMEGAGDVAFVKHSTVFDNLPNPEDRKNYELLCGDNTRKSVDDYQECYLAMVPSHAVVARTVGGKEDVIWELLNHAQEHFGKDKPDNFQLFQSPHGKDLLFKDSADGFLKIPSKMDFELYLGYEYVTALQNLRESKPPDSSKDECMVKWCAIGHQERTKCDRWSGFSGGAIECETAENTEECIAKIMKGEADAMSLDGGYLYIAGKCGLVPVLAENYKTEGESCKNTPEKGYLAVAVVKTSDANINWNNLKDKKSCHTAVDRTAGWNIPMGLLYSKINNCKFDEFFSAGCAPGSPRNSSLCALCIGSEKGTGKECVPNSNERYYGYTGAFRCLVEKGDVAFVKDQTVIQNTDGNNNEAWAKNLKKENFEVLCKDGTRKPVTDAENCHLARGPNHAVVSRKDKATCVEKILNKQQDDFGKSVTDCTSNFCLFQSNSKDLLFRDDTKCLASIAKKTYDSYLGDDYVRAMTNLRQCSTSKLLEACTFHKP", "test": "MSD specificity profiling, coated protein, Camille at 100 nM", "procedure": "as §1"}, "[8]": {"biological_target": "Pepsinogen (pork) (pork, UniProt P00791 16-385)", "sequence (P00791 16-385)": "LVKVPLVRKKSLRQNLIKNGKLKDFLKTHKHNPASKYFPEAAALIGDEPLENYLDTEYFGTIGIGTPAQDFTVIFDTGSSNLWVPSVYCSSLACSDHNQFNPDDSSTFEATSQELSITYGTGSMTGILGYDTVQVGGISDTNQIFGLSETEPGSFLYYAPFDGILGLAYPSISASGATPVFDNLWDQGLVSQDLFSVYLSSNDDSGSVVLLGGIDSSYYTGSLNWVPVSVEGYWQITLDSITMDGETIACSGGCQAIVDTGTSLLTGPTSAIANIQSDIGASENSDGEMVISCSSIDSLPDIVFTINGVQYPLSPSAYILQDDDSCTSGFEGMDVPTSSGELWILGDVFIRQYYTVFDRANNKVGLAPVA", "test": "MSD specificity profiling, coated protein, Camille at 100 nM", "procedure": "as §1"}, "[9]": {"biological_target": "Anti-human Fc (Dianova, #109-005-098)", "test": "MSD specificity profiling, coated protein, Camille at 10 nM", "procedure": "as §1"}}, "note": "Changes are numbered by the printed parent chain."}
{"binder": "B1", "values": [{"measurement": "Kd", "setting": "[1]", "value": 0.025, "unit": "nM"}, {"measurement": "signal normalized to reference antibody MOR03207", "setting": "[2]", "value": 1, "unit": "ratio"}, {"measurement": "signal normalized to reference antibody MOR03207", "setting": "[3]", "value": 1, "unit": "ratio"}, {"measurement": "signal normalized to reference antibody MOR03207", "setting": "[4]", "value": 1, "unit": "ratio"}, {"measurement": "signal normalized to reference antibody MOR03207", "setting": "[5]", "value": 1, "unit": "ratio"}, {"measurement": "signal normalized to reference antibody MOR03207", "setting": "[6]", "value": 24, "unit": "ratio"}, {"measurement": "signal normalized to reference antibody MOR03207", "setting": "[7]", "value": 1, "unit": "ratio"}, {"measurement": "signal normalized to reference antibody MOR03207", "setting": "[8]", "value": 1, "unit": "ratio"}, {"measurement": "signal normalized to reference antibody MOR03207", "setting": "[9]", "value": 1, "unit": "ratio"}]}
